According to the supplement of paper PMC12636428:

Test system: Saccharomyces cerevisiae
Assay: transcriptional activation domain activity (GFP:mCherry ratio, weighted mean of sorted bins, harmonized to initial dataset scale) (arbitrary fluorescence ratio units); higher = stronger transcriptional activation
Conditions: beta-estradiol 1 µM; induction time 4 h
Summary of the method: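 Protein tiles carrying barcodes and fused to an estradiol-inducible synthetic transcription factor were placed at the URA3 locus of yeast diploids with a GFP reporter. Following 4 hours at 30 °C in SC with 1 uM beta-estradiol, cells were sorted into 8 GFP:mCherry bins, barcodes were sequenced, and tiles with fewer than 50 reads were discarded. Activation activity is given as the read-weighted mean of bin median fluorescence, averaged across barcodes and linearly mapped to the initial dataset scale.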

For “KEKEKQERDARRREKEGAAAAAAGEKRKVEEGSAGGEAVKKAKVGAAAAAVAA”, the “transcriptional activation domain activity” value was 47800.
For “KEKEVKAEVEEDGSEQEEGEGEEEEEGATRSSARKGKGRATAGGRKTRRGAAG”, the “transcriptional activation domain activity” value was 19400.
For “KEKSASERKEEKRQKKMRGEDVSDSEEEKRKRKDKQRGQRVHAVGSGTTSGAS”, the “transcriptional activation domain activity” value was 35900.
For “KEREQREQREQRRKEEREREKERERERELRERERERERERQQAREEAERAAMG”, the “transcriptional activation domain activity” value was 15400.
With “KESPILVGLICIFNASTFLQMMFYAAISLPLNEDACFGVNFVQTLLWHISFCT” the “transcriptional activation domain activity” value was 74000.
“KESRKERHHDSDRRHKRRHRSREGGEGRDRDRDHRRHHRHGRDRSRSRERKLG” was tested, and the “transcriptional activation domain activity” value was 67400.
“KESTTPSGTIKEVEGGEKGEEGTVAKQNNGEKGLVKSAGRNFLVDERVLRQSF” was tested, and the “transcriptional activation domain activity” value was 40600.
With “KEVAAAEVAPADTAAAEAKPSKKEKKEKEKKPAEGPEGGKKKEKAAGGGGKAA” the “transcriptional activation domain activity” value was 24500.
“KEVASADTKPADAPAGEAKAPKKEKKEKEKKPAEAAEGGKKKEKAAGGGGKAA” was tested, and the “transcriptional activation domain activity” value was 36100.
For “KEVKEGEEGEKPKRGRKRKEAPAENGEEKEEKEPAAKKAKPASKAAPGSKPAS”, the “transcriptional activation domain activity” value was 12700.
In the case of “KEVKEGEEGEKPKRGRKRKEAPAENGEKEPAAKKAKLASKAAPGSKPASKAAS”, the “transcriptional activation domain activity” value is reported as 28300.
For “KEVMDQIHAIWCILLYLYYGTLETDHVFRFCFAPNVSRPLSELEQRFFNERHG”, the “transcriptional activation domain activity” value was 48000.
With “KFANNVSEMKKLGARDFEDILQNLIPVVDGLLDEPYNSWILTLLFRLAEWHAL” the “transcriptional activation domain activity” value was 42400.
For “KFCAITLAGTWGKVVLYSLAMTRVVSYCYNIYYMDSVFSRTIRPGIGICFTSL”, the “transcriptional activation domain activity” value was 67100.
With “KFFVRHQHKLYYVILSLGRFNLHNLSFTYLFTAPRVRYRWLEIFGICVFFTWY” the “transcriptional activation domain activity” value was 55900.
In the case of “KFHYRCGVAAKDTTESLRWVVADHYTWFTCTHCAAHKAHWYFDGSLGLVRLWF”, the “transcriptional activation domain activity” value is reported as 69200.
With “KFIGYQWAYFAVISGALLYAWSRVIMLFVLRILPQDIRLIAFIITSIYCLILL” the “transcriptional activation domain activity” value was 24900.
For “KFIWRSSWSLPKIMYLLIRYLGLVCLLYYAMNAVTVQKSIAVCQLYIISMHTV”, the “transcriptional activation domain activity” value was 67000.
In the case of “KFKTFPLFLPRINFHSIPSFNILLSSFPNSIFLNVLFRISLYYIWAYFLWCAL”, the “transcriptional activation domain activity” value is reported as 52000.
“KFLRHVLLKYFSFRLRSWMLNWAIGCVVRLFFFILHLLHPSWIFFLIYPYILN” was tested, and the “transcriptional activation domain activity” value was 54400.
In the case of “KFNLLEWSEILSLLTCYRLLIAMYSFRSLVIVIASYIVFGLSVFSLLVRLLFL”, the “transcriptional activation domain activity” value is reported as 38100.
For “KFNNRLSSDSTSPIKYEADVSAGGKISEDNSTKGSSKESSAIADELDWLKFGI”, the “transcriptional activation domain activity” value was 40600.
In the case of “KFPLFMLIAQGSFAFILWCFPFRSFLFIWALLMFTHTPLPSLLLLASCFSFSF”, the “transcriptional activation domain activity” value is reported as 60100.
“KFQERMMVLKEIKLISLGDVRKITYSRMGYTDWKIVVLGRMWNLRFFVATGWD” was tested, and the “transcriptional activation domain activity” value was 64400.
“KFSLGGALYLLTRYCVLLQLIFDVTYEMQPPWTLNNVVWVANISDLVSGISIH” was tested, and the “transcriptional activation domain activity” value was 34400.
With “KFTAFTFLPLTLWHEFSFFFNLYFLVVALSQCIPVLRIGYLSSYIVPLVFVLA” the “transcriptional activation domain activity” value was 54900.
In the case of “KFVDLGIFKAEGTRLRCRMCGFLIASLVLCMHMSQACPMYPRYPSSNMHEHPD”, the “transcriptional activation domain activity” value is reported as 29300.
In the case of “KFWFFLLFYYGFYNLTALLMVSQYFNLYSFHWWPKSIGGLWSTFFFWLFSMFL”, the “transcriptional activation domain activity” value is reported as 58400.
In the case of “KFYARILKLLLLLNHILIIAGVNESPYSKDKVIRYLFNMFRLWTTKRSAKENQ”, the “transcriptional activation domain activity” value is reported as 62000.
With “KFYVIYTLFMVVFFMVLTICYYTNGSYGRDALGLCNFKEWNGRLVSRVYMMYL” the “transcriptional activation domain activity” value was 45000.
“KGAKDEKKEDAKGGEEGKDATKQREKEESKGGKLESTPSKEFSDGKEQQEKKG” was tested, and the “transcriptional activation domain activity” value was 40400.
In the case of “KGANQAVACAKLSRSRPQPSSSTSSSSTEAGANDAETHATAHVSMLGAVGDDS”, the “transcriptional activation domain activity” value is reported as 18700.
For “KGAPKKSKGEEKEEVVAEETKVEVKVVKETKKVDKAAKAETKKDEVKKVKKVE”, the “transcriptional activation domain activity” value was 46000.
“KGDLESFRRITDLNLTHEHARWFCRYHMFYQLGNYCEIYLWRSIFRKVFLLTG” was tested, and the “transcriptional activation domain activity” value was 54700.
